Assay results from patent US20240392024A1.

Molecular target: human TNFR2 on the cell membrane (human) (UniProt P20333)
Assay: flow cytometry on human PBMC, CD3+ T cells

Chain of human TNFR2 on the cell membrane (human) (P20333 23-461): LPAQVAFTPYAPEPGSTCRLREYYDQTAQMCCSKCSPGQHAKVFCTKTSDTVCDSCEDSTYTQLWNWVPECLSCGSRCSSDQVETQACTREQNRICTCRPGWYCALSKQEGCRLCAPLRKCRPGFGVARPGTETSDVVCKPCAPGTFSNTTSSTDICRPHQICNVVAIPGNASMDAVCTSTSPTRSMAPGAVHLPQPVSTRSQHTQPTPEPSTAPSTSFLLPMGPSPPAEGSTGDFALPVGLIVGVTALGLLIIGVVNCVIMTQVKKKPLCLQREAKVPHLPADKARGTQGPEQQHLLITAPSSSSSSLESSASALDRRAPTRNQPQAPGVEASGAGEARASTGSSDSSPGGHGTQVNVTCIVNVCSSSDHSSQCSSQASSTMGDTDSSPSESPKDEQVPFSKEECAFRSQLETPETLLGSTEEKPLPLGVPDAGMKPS

percent of cells in the upper right quadrant (Q1-UR, CD3+ and anti-human IgG Fc+): 5.48%
Substance: Isotype Ctrl (antibody)
